We go through five molecules from paper PMC3005887 (Research letters in biochemistry, 2009).

Experiment [1] deals with T1, 6Hishub/6HisLCb (clathrin hub with bound clathrin light chain b) (bovine, UniProt P49951 1074-1675; P04975 1-228).
T1 sequence (looked up) 1: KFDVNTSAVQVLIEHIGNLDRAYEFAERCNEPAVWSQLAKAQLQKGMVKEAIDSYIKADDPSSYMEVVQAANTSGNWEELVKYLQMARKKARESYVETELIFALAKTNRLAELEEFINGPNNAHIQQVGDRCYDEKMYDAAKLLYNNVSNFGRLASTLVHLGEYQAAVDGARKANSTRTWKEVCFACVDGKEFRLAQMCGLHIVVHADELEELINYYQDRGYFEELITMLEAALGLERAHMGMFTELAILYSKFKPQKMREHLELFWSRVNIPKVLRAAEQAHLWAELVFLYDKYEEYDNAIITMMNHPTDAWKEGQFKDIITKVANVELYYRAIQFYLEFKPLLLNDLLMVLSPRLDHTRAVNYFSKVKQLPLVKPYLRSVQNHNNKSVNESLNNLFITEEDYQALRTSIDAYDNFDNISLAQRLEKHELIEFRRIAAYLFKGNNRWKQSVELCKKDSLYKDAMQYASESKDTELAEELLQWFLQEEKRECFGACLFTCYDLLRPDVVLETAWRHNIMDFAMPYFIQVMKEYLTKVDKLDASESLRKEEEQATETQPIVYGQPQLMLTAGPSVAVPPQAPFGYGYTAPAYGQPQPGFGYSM
T1 sequence (looked up) 2: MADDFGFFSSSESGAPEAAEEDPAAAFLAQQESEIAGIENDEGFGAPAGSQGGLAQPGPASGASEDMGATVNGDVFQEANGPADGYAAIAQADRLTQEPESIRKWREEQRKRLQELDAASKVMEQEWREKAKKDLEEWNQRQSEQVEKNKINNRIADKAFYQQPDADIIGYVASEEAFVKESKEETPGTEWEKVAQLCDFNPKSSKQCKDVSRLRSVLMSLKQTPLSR
As to the kind of experiment: pull-down; GST or GST-HIP1h on glutathione Sepharose 4B beads; 6HisLCb and hub premixed 3:1 at 4 C for at least 30 min; 0.4 nmol hub alone or 1.9 nmol hub/6HisLCb complex; binding buffer 50 mM Tris, 200 mM KCl, 1 mM EDTA, 1% Triton X-100, 50 mM imidazole, 0.5 mg/ml ovalbumin, pH 8.0; 4 C, 1 hour; Western blot (anti-His, CON.1, anti-GST). Conditions: both partners purified. A general note: Immunoblotting shows a protein as a band on a membrane.

The target in experiment [2] is T2, 6Hishub alone (clathrin hub, bovine clathrin heavy chain aa1074-1675, no bound LCb) (bovine, UniProt P49951 1074-1675).
T2 sequence (looked up): T1 sequence (looked up) 1
Described as above. The following applies: both partners purified.

Changes are numbered by the printed parent chain. Numbers in names are those of the source.

B1: GST-HIP1h (Huntingtin-interacting protein 1, aa370-644), wild type (domain or fragment, human, UniProt O00291-1 370-644, looked up)
chain: KDEKDHLIERLYREISGLKAQLENMKTESQRVVLQLKGHVSELEADLAEQQHLRQQAADDCEFLRAELDELRRQREDTEKAQRSLSEIERKAQANEQRYSKLKEKYSELVQNHADLLRKNAEVTKQVSMARQAQVDLEREKKELEDSLERISDQGQRKTQEQLEVLESLKQELATSQRELQVLQGSLETSAQSEANWAAEFAELEKERDSLVSGAAHREEELSALRKELQDTQLKLASTEESMCQLAKDQRKMLLVGSRKAAEQVIQDALNQLEE
With B1, the binding result in experiment [1] is given as “binds”.

B2: GST-HIP1h (aa370-644) R500E (domain or fragment, human, UniProt O00291-1 370-644, looked up)
chain: B1 chain with R131E
As for B2, the binding result in experiment [1] is given as “binds”.

B3: GST-HIP1h (aa370-644) R508E (domain or fragment, human, UniProt O00291-1 370-644, looked up)
chain: B1 chain with R139E
For the molecule B3, the binding result in experiment [1] was “binds”.

B4: GST-HIP1h (aa370-644) K511E (domain or fragment, human, UniProt O00291-1 370-644, looked up)
chain: B1 chain with K142E
Take B4: the binding result in experiment [1] was “binds”.

B5: 6HisLCb (N-terminally histidine-tagged bovine clathrin light chain b with the neuronal insert) (natural protein, UniProt P04975 1-228, looked up)
chain: T1 sequence (looked up) 2
For the molecule B5, in experiment [2], the binding result is on record as “binds”.
